Laboratory results as given in patent publication US20090275124A1 (DYAX, published 2009).

B1: 539C-M0016-E11 (Fab, V domains shown)
VH: EVQLLESGGGLVQPGGSLRLSCAASGFTFSFYVMDWVRQAPGKGLEWVSGIGPSGGSTDYADSVKGRFTISRDNSKNTLYLQMNSLRAEDTAVYYCTRIRYDSSGYPTDAFDIWGQGTMVTVSS
VL: DIQMTQSPATLSLSPGERATLSCRASQSVSSYLAWYQQKPGQAPRLLIYDASNRATGIPARFSGSGSGTDFTLTISSLEPEDFAVYYCQQRSNWPLTFGGGTKVEIKR
notes: It was tested as Fab on phage, as soluble Fab, and biotinylated in the ECL assay
B2: 539C-R0010-C06 (Fab, V domains shown)
VH: EVQLLESGGGLVQPGGSLRLSCAASGFTFSSYNMAWVRQAPGKGLEWVSVIVPSGGLTGYADSVKGRFTISRDNSKNTLYLQMNSLRAEDTAVYYCARERGGFYSSGWYRYWFDPWGQGTLVTVSS
VL: DIQMTQSPSSLSASVGDRVTITCRASQNINTFLNWYQQKPGKAPKLLIYGASSLQSGVPSRFSGSGSGTDFTLTISSLQPEDFATYYCQQSSDALVYNFGQGTKLEIK
notes: A Fab from the phage display library with a kappa light chain; Only the starts of the constant regions are printed
B3: 539C-R0010-B06 (Fab, V domains shown)
VH: EVQLLESGGGLVQPGGSLRLSCAASGFTFSEYQMNWVRQAPGKGLEWVSSIYSSGGGTAYADSVKGRFTISRDNSKNTLYLQMNSLRAEDTAVYYCAKDQGDGYNYGVGLDYWGQGTLVTVSS
VL: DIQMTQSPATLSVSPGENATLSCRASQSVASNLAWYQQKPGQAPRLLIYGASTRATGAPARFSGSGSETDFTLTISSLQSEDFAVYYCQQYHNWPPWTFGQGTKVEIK
notes: A Fab from the phage display library with a kappa light chain; Only the starts of the constant regions are printed (RTVAAPS)
B4: 539C-R0010-F06 (Fab, V domains shown)
VH: EVQLLESGGGLVQPGGSLRLSCAASGFTFSDYHMSWVRQAPGKGLEWVSGISSSGGETFYADSVKGRFTISRDNSKNTLYLQMNSLRAEDTAVYYCASGSHRDGYNLGYFDYWGQGTLVTVSS
VL: DIQMTQSPASLSASVGDRVTITCQASRDIGEYLNWYQQKAGKPPKLLISDATTLETGVPSRFSGTGSGTEFLFTISSVEPEDFATYYCQQYDDLTWISFGPGTRLDVK
notes: as for B2
B5: 539C-R0010-C05 (Fab, V domains shown)
VH: EVQLLESGGGLVQPGGSLRLSCAASGFTFSGYGMGWVRQAPGKGLEWVSYIVPSGGATDYADSVKGRFTISRDNSKNTLYLQMNSLRAEDTAVYYCARAYYYDSSGFDIWGQGTMVTVSS
VL: DIQMTQSPSSLSASVGDRVTITCLPSQDISVYLNWYQQKPGEAPKLLISATSDLQSGVPSRFGGSGYGTDFSLTITSLQREDFATYYCQQSYSLPFTFGGGTRVEIK
notes: as for B2
B6: 539C-R0010-E06 (Fab, V domains shown)
VH: EVQLLESGGGLVQPGGSLRLSCAASGFTFSDYWMFWVRQAPGKGLEWVSGIGPSGGIISYADSVKGRFTISRDNSKNTLYLQMNSLRAEDTAVYYCAKYGDYVSGFDYWGQGTLVTVSS
VL: QSALTQPASVSGSPGQSITISCTGTSSDVGGYKLVSWYQQHPGKVPKLIISEVSYRPSGVSNRFSGSKSGNAASLTISGLQAEDEADYYCSSYTSTSTWVFGGGTKLTVL
notes: A Fab from the phage display library with a lambda light chain; Only the starts of the constant regions are printed
B7: 539C-M0021-E01 (Fab, V domains shown)
VH: EVQLLESGGGLVQPGGSLRLSCAASGFTFSVYPMIWVRQAPGKGLEWVSYISSSGGQTWYADSVKGRFTISRDNSKNTLYLQMNSLRAEDTATYYCARGDDYDSSGPDYWGQGTLVTVSS
VL: DIQMTQSPSSLSASEGDRITLTCRASQSISIYLNWYQQKPGRAPKLLMYAATTLQSGVPSRFSGSGSGTDFTLTISGLRPEDFATYYCQQSYDIPLTFGGGTKVEIKR
notes: It was tested as Fab on phage and as soluble Fab
B8: 539C-R0004-G04 (Fab, V domains shown)
VH: EVQLLESGGGLVQPGGSLRLSCAASGFTFSDYDMHWVRQAPGKGLEWVSGISPSGGWTWYADSVKGRFTISRDNSKNTLYLQMNSLRAEDTAVYYCARDWYSSGLDYWGQGTLVTVSS
VL: QYELTQPPSVSVAPGQTARIICGGNDIGSKGVHWYHQKAGQAPVLLVYDNTDRPSGIPERFSGSNSGNTAALTITRVEAGDEADYFCQVWDSTGEHAVFGGGTKLTVL
notes: A Fab from the phage display library with a lambda light chain; Only the starts of the constant regions are printed; The VL is built from the FR/CDR columns because the joined LV-AA print (r109-r111) reads ADYEC where LV-FR3 reads ADYFC
B9: 539C-R0010-D06 (Fab, V domains shown)
VH: EVQLLESGGGLVQPGGSLRLSCAASGFTFSDYSMYWVRQAPGKGLEWVSYISSSGGNTEYADSVKGRFTISRDNSKNTLYLQMNSLRAEDTAMYYCATTPSIWLGDLLENGPYWGQGTLVTVSS
VL: QYELTQPHSVSESPGKTVTISCTRSNGTIDNSFVQWYQQRPGSAPTTVIYEDTQRPSGVPDRFSGSIDSSSNSASLTISGLKTEDEADYYCQSYDSTNRGVFGGGTKLTVL
notes: A Fab from the phage display library with a lambda light chain; Only the starts of the constant regions are printed (GQPKAAP)
B10: 539C-R0010-F05 (Fab, V domains shown)
VH: EVQLLESGGGLVQPGGSLRLSCAASGFTFSWYAMVWVRQAPGKGLEWVSGISPSGGLTSYADSVKGRFTISRDNSKNTLYLQMNSLRAEDTAVYYCARKQMSPDYYYGMDVWGQGTTVTVSS
VL: QSVLTQPPSVSVAPGQTATISCEGDNIGSKSVHWYQQRPGQAPVLVVYDDYDRPSGIPERFSGFNSGNTATLTIYRVEAGDEADFYCQVRDSRTEERVFGGGTKLTVL
notes: as for B6

The binders below were run against T1, DX-2400 (assay: phage ELISA).
T1 construct: Only the variable domains are printed (joined from rows r3-r12 and r17-r26); It was biotinylated for phage selection; also called DX-2400 IgG; fully human monoclonal anti-MMP-14 antibody
Text: Three rounds of selection were done against biotinylated DX-2400 after depleting the library using biotinylated-DX-2300 IgG (control antibody that binds unrelated target) and biotinylated matched Vk Fab (371L-X002-A03) (isotype matched control) immobilized on streptavidin magnetic beads. […] Forty-nine unique phage clones which had distinct heavy chains were secondarily screened by phage ELISA and ranked for specific binding to DX-2400. Later 45 soluble Fabs were expressed, purified and screened for non-specific binding to 5% human, cyno, rat, and mouse serum antibodies by using Fab as capture reagent and detecting with alkaline phosphatase-conjugated mouse anti-human Fc gamma-specific antibody.
B1: binds.

Each binder was assayed against T1, DX-2400 (assay: phage display selection and ELISA screening).
Text: Anti-idiotypic Fabs for DX-2400 were generated by phage selection and screenings using DX-2400 as a target. […] Forty nine were distinct as determined by DNA sequencing. These 49 unique clones were screened as phages and sFabs (soluble Fabs) in 5% pooled normal serum matrices (human, mouse, rat and cynomolgus monkey). Top 10 unique clones were ranked according to the following criteria: strong binding to DX-2400, weak binding to DX-2300, low-non specific binding to streptavidin and Fab control.
B2: binds. B3: binds. B4: binds. B5: binds. B6: binds. B7: binds. B8: binds. B9: binds. B10: binds.
